This is an account of results in PMC3800186.

What is called IC50 is the concentration that inhibits the measured activity by half. A high value points to a need for much substance.

The target of the test is HIV-1 YU2 gp120 S375A mutant (HIV-1 YU2). Put plainly: SPR.

The substance KR21 biotinylated peptide triazole returned an IC50 of 1.28 µM.
